Values of other authors, collected in article PMC11231610, “Fatty acid binding to the human transport proteins FABP3, FABP4, and FABP5 from a Ligand’s perspective” (The Journal of Biological Chemistry, 2024).

Molecular target: Cgi-58 (Mus musculus) (UniProt Q9DBL9)
Experiment: MST

Chain of FABP4 (P04117 2-132): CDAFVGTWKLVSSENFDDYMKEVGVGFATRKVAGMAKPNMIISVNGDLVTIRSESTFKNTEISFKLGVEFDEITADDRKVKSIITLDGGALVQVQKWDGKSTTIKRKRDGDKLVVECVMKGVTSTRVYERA
Chain of Cgi-58 (Mus musculus) (Q9DBL9 whole entry): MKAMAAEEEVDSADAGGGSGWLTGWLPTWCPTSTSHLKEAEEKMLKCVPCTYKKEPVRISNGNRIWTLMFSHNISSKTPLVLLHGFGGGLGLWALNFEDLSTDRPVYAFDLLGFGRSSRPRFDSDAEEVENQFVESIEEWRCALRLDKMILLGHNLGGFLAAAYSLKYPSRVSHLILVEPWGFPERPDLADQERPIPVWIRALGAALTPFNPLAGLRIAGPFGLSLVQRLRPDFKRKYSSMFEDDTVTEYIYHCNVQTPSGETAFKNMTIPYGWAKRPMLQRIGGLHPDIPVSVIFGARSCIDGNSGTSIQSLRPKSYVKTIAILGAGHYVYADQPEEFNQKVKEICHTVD

Kd: 192 µM
Substance: FABP4 (from UniProt P04117)
